Reference: paper PMC8805024

Target: Acinetobacter baumannii AdeJ multidrug efflux pump (Acinetobacter baumannii AB0057)
Assay: cryo-EM structure; single-particle cryo-EM of 10 uM AdeJ-nanodisc (MSP 1E3D1, E. coli total lipid extract) incubated with 20 uM TP-6076 for 1 h; 2.91 Å; asymmetric trimer of access, binding and extrusion protomers

In the case of “Acinetobacter baumannii AdeJ multidrug efflux pump (natural protein)”, the stoichiometry N is reported as 3.
